Laboratory results: patent US20120165503A1 (Merck Sharp & Dohme, published 2012)
Like-named read-outs stand apart in the source and are kept apart here. *1 amine or outer side, *2 acyl side, *3 side chain or, on linkers, in order; H or OH if unused. Where no end group is shown, it is not given here. Side-chain parts run from the residue outwards. [ ]: non-standard residue; d: D form. The star is where a group is joined. O‑methyl‑L‑homoserine = COCC[C@H](N[*:1])C(=O)[*:2]; γGlu = O=C(O)[C@H](CCC(=O)[*:2])N[*:1]; Palmitoyl = CCCCCCCCCCCCCCCC(=O)*; Nle = CCCC[C@H](N)C(=O)O; Aib = CC(C)(N)C(=O)O

Tests used:
[1] = target: T1, human GLP-1 receptor (human, UniProt P43220 24-463); test: cell-based or functional assay
[2] = target: T2, human glucagon receptor (human, UniProt P47871 26-477); test: cell-based or functional assay
[3] = target: T1, human GLP-1 receptor; test: cell-based or functional assay; remark: listed apart in the source
[4] = target: T2, human glucagon receptor; test: cell-based or functional assay; remark: listed apart in the source
[5] = target: T1, human GLP-1 receptor; test: cell-based or functional assay; remark: listed apart in the source
[6] = target: T2, human glucagon receptor; test: cell-based or functional assay; remark: listed apart in the source
[7] = target: T1, human GLP-1 receptor; test: receptor binding affinity (GLP-1R IC50); assay format not described
[8] = target: T3, glucagon receptor of wild-type mice (liver, in vivo) (mouse, UniProt Q61606 27-485); test: in vivo competition with 125I-glucagon, liver of wild-type mice, s.c. dosing
T3 construct: whole, on cells; Receptor occupancy measured in vivo in liver; also called GCGR; GGCR

[9] = target: T1, human GLP-1 receptor; test: cell-based or functional assay; remark: listed apart in the source
[10] = target: T2, human glucagon receptor; test: cell-based or functional assay; remark: listed apart in the source
[11] = target: T3, glucagon receptor of wild-type mice …; test: in vivo GCGR receptor occupancy, competition assay in wild-type mice, 3 mpk s.c.

T3 sequence (Q61606 27-485): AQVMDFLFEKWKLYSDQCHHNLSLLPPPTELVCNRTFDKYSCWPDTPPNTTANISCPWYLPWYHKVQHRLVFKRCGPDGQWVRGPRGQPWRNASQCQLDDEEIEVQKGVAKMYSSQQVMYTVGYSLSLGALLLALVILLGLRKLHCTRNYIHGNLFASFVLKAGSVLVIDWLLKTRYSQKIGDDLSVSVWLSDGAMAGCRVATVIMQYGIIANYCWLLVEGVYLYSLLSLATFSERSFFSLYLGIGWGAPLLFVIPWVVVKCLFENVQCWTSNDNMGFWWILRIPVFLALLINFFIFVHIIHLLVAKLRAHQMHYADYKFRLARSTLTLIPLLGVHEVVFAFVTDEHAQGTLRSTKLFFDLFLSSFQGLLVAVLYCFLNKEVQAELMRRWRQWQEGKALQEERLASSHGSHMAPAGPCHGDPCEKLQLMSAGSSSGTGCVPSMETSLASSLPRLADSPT
T2 sequence (P47871 26-477): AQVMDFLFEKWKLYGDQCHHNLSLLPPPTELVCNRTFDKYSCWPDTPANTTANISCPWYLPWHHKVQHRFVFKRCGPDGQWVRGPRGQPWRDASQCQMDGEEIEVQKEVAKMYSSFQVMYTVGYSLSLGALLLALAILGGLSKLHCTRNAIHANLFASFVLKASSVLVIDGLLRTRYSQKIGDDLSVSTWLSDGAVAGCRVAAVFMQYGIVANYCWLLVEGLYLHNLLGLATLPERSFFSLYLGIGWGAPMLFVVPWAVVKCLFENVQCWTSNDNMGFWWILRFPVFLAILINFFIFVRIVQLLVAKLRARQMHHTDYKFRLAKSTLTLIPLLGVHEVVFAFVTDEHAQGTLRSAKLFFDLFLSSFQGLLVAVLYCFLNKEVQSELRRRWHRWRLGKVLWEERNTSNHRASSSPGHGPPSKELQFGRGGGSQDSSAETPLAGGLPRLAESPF

Row | Binder | GLP-1R EC50 [9] | GCGR + 10% plasma [10] | GCGR EC50 [10] | % RO @ 3 mpk s.c. [11] | % Activation of GCGR [10] | further results
1 | H[dS]QGTFTSDK([γGlu-Palmitoyl])SKYLDERRAQDFVQWLMNTK[γGlu]-NH2 (N-terminus assumed; SMILES CCCCCCCCCCCCCCCC(=O)N[C@@H](CCC(=O)NCCCC[C@H](NC(=O)[C@H](CC(=O)O)NC(=O)[C@H](CO)NC(=O)[C@@H](NC(=O)[C@H](Cc1ccccc1)NC(=O)[C@@H](NC(=O)CNC(=O)[C@H](CCC(N)=O)NC(=O)[C@@H](CO)NC(=O)[C@@H](N)Cc1c[nH]cn1)[C@@H](C)O)[C@@H](C)O)C(=O)N[C@@H](CO)C(=O)N[C@@H](CCCCN)C(=O)N[C@@H](Cc1ccc(O)cc1)C(=O)N[C@@H](CC(C)C)C(=O)N[C@@H](CC(=O)O)C(=O)N[C@@H](CCC(=O)O)C(=O)N[C@@H](CCCNC(=N)N)C(=O)N[C@@H](CCCNC(=N)N)C(=O)N[C@@H](C)C(=O)N[C@@H](CCC(N)=O)C(=O)N[C@@H](CC(=O)O)C(=O)N[C@@H](Cc1ccccc1)C(=O)N[C@H](C(=O)N[C@@H](CCC(N)=O)C(=O)N[C@@H](Cc1c[nH]c2ccccc12)C(=O)N[C@@H](CC(C)C)C(=O)N[C@@H](CCSC)C(=O)N[C@@H](CC(N)=O)C(=O)N[C@H](C(=O)N[C@@H](CCCCN)C(=O)N[C@@H](CCC(N)=O)C(=O)O)[C@@H](C)O)C(C)C)C(=O)O) [OXM414] |  |  |  |  |  | hGLP-1R + 20% Plasma EC50 [1]: 0.07 nM; hGCGR + 20% plasma EC50 [2]: 0.15 nM; hGLP-1R EC50 [3]: 0.007 nM; hGCGR EC50 [4]: 0.005 nM
2 | H[dS]QGTFTSDK([γGlu-γGlu-Palmitoyl])SKYLD[Aib]RRAQDFVQWLMNTK[γGlu]-NH2 (N-terminus assumed; SMILES CCCCCCCCCCCCCCCC(=O)N[C@@H](CCC(=O)N[C@@H](CCC(=O)NCCCC[C@H](NC(=O)[C@H](CC(=O)O)NC(=O)[C@H](CO)NC(=O)[C@@H](NC(=O)[C@H](Cc1ccccc1)NC(=O)[C@@H](NC(=O)CNC(=O)[C@H](CCC(N)=O)NC(=O)[C@@H](CO)NC(=O)[C@@H](N)Cc1c[nH]cn1)[C@@H](C)O)[C@@H](C)O)C(=O)N[C@@H](CO)C(=O)N[C@@H](CCCCN)C(=O)N[C@@H](Cc1ccc(O)cc1)C(=O)N[C@@H](CC(C)C)C(=O)N[C@@H](CC(=O)O)C(=O)NC(C)(C)C(=O)N[C@@H](CCCNC(=N)N)C(=O)N[C@@H](CCCNC(=N)N)C(=O)N[C@@H](C)C(=O)N[C@@H](CCC(N)=O)C(=O)N[C@@H](CC(=O)O)C(=O)N[C@@H](Cc1ccccc1)C(=O)N[C@H](C(=O)N[C@@H](CCC(N)=O)C(=O)N[C@@H](Cc1c[nH]c2ccccc12)C(=O)N[C@@H](CC(C)C)C(=O)N[C@@H](CCSC)C(=O)N[C@@H](CC(N)=O)C(=O)N[C@H](C(=O)N[C@@H](CCCCN)C(=O)N[C@@H](CCC(N)=O)C(=O)O)[C@@H](C)O)C(C)C)C(=O)O)C(=O)O) [OXM418] |  |  |  |  |  | hGLP-1R + 20% Plasma EC50 [1]: 0.3 nM; hGCGR + 20% plasma EC50 [2]: 0.3 nM; hGLP-1R EC50 [3]: 0.026 nM; hGCGR EC50 [4]: 0.002 nM
3 | HSEGTFTSDYSKYLDSRRAQDFVQWLMNTKRNRNNIA (Native OXM with Glu instead of Gln at position 3; the entry already carries the change; also called OXM8 (Q3E); GLP-1 mimetic) [OXM-Q3E] |  |  |  |  |  | GLP-1R EC50 [5]: 12.4 nM; % Activation of GCGR [6]: 17%; GCGR EC50 [6]: 1640 nM; IC50 [7]: 237 nM; binding result [8]: no binding
4 | HXQGTFTSDYSKYLDSRRAQDFVQWLMNTKRNRNNIAC (Aib at position 2; C4 = Cys(cholest-5-en-3-yl{[(2R)-3-amino-2-(amino)-3-oxopropyl]thio}acetate) at position 38; C-terminal amide) [OXM70] | 0.15 nM | 169 nM | 2.4 nM | ~0% |  | 
5 | HXQGTFTSDYSKYLDSRRAQDFVQWLMNTKRNRNNIAK (Aib at position 2; K(palmitoyl) at position 38; C-terminal amide) [OXM177] | 0.1 nM | 3 nM | 0.59 nM | 30% | 93% | GCGR + 10% plasma (fold shift) [10]: 5 fold
6 | H[Aib]QGTFTSDYSKYLDSRRAQDFVQWL[Nle]NTKRNRNNIAC(cholesterol)-NH2 [OXM212] | 0.6 nM | 1030 nM | 11.3 nM |  | 115% | GCGR + 10% plasma (fold shift) [10]: 92 fold
7 | H[Aib]QGTFTSDYSKYLDSRRAQDFVQWL[O‑methyl‑L‑homoserine]NTKRNRNNIAC(cholesterol)-NH2 [OXM213] | 0.3 nM | 1210 nM | 27.6 nM |  |  | 
8 | HSDGTFTSDYSKYLDSRRAQDFVQWLMNTKRNRNNIA [OXM-Q3D] |  |  |  |  |  | GLP-1R EC50 [5]: 2.3 nM; % Activation of GCGR [6]: 1%; GCGR EC50 [6]: 3400 nM
9 | HSQGTFTSDYSKYLDSRRAQDFVQWLMNTKRNRNNIAC (D-Ser at position 2; C7 = Cys(Oxa4-cholesterol) at position 38; C-terminal amide) [OXM115] | 0.08 nM | 0.64 nM | 0.33 nM | 36% | 100% | 
10 | HXQGTFTSDYSKYLDSRRAQDFVQWLMNTKRNRNNIAC (Aib at position 2; C7 = Cys(Oxa4-cholesterol) at position 38; C-terminal amide) [OXM216] | 3.1 nM | 12 nM | 0.63 nM | 10% | 93% | 
